The source of these data is paper PMC2267068, “Comparative Analysis of Metal Binding Characteristics of Copper Chaperone Proteins, Atx1 and ATOX1” (Bioinorganic Chemistry and Applications, 2004).

Numbering of substitutions follows the chain as printed. Numbers in names are those of the source. Where “and” joins values, the source holds several entries; their conditions need not be identical. Equal values may be shown once.

Series [1] deals with T1, Atx1 (yeast copper chaperone) (yeast (Saccharomyces cerevisiae)), P38636.
T1 chain: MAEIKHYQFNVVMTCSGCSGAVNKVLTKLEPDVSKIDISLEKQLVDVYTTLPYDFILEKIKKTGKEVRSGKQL
The series is described as follows: cross-linking; Hg(II) + DTT; DMS or EGS for ATOX1, EGS for Atx1; products on SDS-PAGE. As to conditions: remark: other sources report otherwise.

For series [2], the target named is T1, Atx1 (yeast copper chaperone) (yeast …). Briefly: SEC; Bio-Gel P-10 column (1.5 x 60 cm), 20 mM MES pH 6.0; reduced apoprotein (+DTT 3:1); 0.3, 0.5 and 0.3 mM ATOX1, C41S-ATOX1 and Atx1; size against myoglobin (18 kDa) and cytochrome C (12.5 kDa). As to conditions: remark: other sources report otherwise.
Series [3] has the same target. Briefly: SEC; Bio-Gel P-10 column (1.5 x 60 cm), 20 mM MES pH 6.0; Cd(II) complex (metal 1:1, DTT 3:1); 0.3, 0.5 and 0.3 mM ATOX1, C41S-ATOX1 and Atx1; size against myoglobin (18 kDa) and cytochrome C (12.5 kDa). The note with it: remark: other sources report otherwise.
For series [4] the target is unchanged. Briefly: cross-linking; EGS (spacer arm 16.1 A), Cd(II) + DTT; products on SDS-PAGE. The note with it: remark: other sources report otherwise.
The target of series [5] is T2, ATOX1 (human copper chaperone), wild type (human), O00244.
T2 chain: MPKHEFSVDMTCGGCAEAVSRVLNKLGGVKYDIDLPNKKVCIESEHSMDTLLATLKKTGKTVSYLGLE
Briefly: cross-linking; Hg(II) + DTT; DMS or EGS for ATOX1, EGS for Atx1; products on SDS-PAGE. The note with it: remark: other sources report otherwise.

Series [6] has as its target T2, ATOX1 (human copper chaperone), wild …. Briefly: cross-linking; metal complexes + DTT (which metals not told), DMS or EGS; faint higher bands on SDS-PAGE. The note with it: remark: other sources report otherwise.
Series [7] has the same target. The series is described as follows: SEC; Bio-Gel P-10 column (1.5 x 60 cm), 20 mM MES pH 6.0; reduced apoprotein (+DTT 3:1); 0.3, 0.5 and 0.3 mM ATOX1, C41S-ATOX1 and Atx1; size against myoglobin (18 kDa) and cytochrome C (12.5 kDa). As to conditions: remark: other sources report otherwise.
The target is the same in series [8]. The series is described as follows: SEC; Bio-Gel P-10 column (1.5 x 60 cm), 20 mM MES pH 6.0; Cd(II) complex (metal 1:1, DTT 3:1); 0.3, 0.5 and 0.3 mM ATOX1, C41S-ATOX1 and Atx1; size against myoglobin (18 kDa) and cytochrome C (12.5 kDa). As to conditions: remark: other sources report otherwise.
Series [9] shares this target. The series is described as follows: cross-linking; EGS (spacer arm 16.1 A), Cd(II) + DTT; products on SDS-PAGE. The note with it: remark: other sources report otherwise.
The target is the same in series [10]. Briefly: cross-linking; DMS (spacer arm 11 A), Cd(II) + DTT; products on SDS-PAGE. As to conditions: remark: other sources report otherwise.
Series [11] concerns the molecule itself. Briefly: SEC; Bio-Gel P-10 column (1.5 x 60 cm), 20 mM MES pH 6.0; reduced apoprotein (+DTT 3:1); 0.3, 0.5 and 0.3 mM ATOX1, C41S-ATOX1 and Atx1; size against myoglobin (18 kDa) and cytochrome C (12.5 kDa).

B1: Atx1 (yeast copper chaperone), P38636 1-73 (natural protein)
chain: T1 chain
For B1, the stoichiometry N in series [1], in series [2], in [3] and in series [4] was 2 each time.

B2: ATOX1 (human copper chaperone), wild type, O00244 1-68 (natural protein)
chain: T2 chain
On to B2, for which the stoichiometry N in series [5] is 2; in [6], 3 and 4; in series [7] it was 2; in series [8], 2; in [9], 2; in [10], 2.

B3: C41S-ATOX1 (natural protein, human, UniProt O00244 1-68, looked up)
chain: T2 chain with C41S
notes: ATOX1 (HAH1), human copper chaperone, with the non-conserved Cys 41 mutated to Ser; Made on the ATOX1 construct in pGEX-6P-2 to imitate Atx1, which lacks this Cys; also called C41S-ATOXI; source: E. coli BL21 (DE3), GST fusion from pGEX-6P-2, purified, GST removed with PreScission protease; not shown: GST, N-terminal, cleaved
On to B3, for which the “stoichiometry N” value in series [11] was 2.
